Results as given in US20060094663A1.
Where no end group is shown, it is not given here. [ ]: non-standard residue; d: D form. I2aa = indolizidin-2-one amino acid (2-oxo-3-amino-azabicyclo[4.3.0]nonane-9-carboxylic acid), a dipeptide surrogate; dOrn = NCCC[C@@H](N)C(=O)O

Legend:
[1] = target: IL-1R/IL-1RacP receptor (cells or tissue whose species is not stated); assay: cell-based or functional assay
[2] = target: IL-1R/IL-1RacP receptor on porcine cells and vessels (porcine (piglet)); assay: cell-based or functional assay

Sequence of IL-1R/IL-1RacP receptor (cells or tissue whose species is not stated) (P14778 whole entry, chain 1 of 2): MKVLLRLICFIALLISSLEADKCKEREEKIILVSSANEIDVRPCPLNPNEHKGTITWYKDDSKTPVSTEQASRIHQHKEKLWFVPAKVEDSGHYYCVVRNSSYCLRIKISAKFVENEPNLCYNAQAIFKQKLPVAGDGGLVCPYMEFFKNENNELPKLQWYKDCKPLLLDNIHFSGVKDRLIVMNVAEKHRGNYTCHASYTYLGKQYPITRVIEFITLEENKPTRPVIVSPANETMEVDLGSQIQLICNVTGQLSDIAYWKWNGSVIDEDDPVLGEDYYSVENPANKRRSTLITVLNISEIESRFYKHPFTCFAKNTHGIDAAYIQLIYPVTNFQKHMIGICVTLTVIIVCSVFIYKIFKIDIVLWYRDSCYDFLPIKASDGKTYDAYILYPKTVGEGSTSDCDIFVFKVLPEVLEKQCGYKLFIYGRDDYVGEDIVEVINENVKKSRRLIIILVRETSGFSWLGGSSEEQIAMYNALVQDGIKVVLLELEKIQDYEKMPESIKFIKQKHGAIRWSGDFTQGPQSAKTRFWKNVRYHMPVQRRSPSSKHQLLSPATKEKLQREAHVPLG
Sequence of IL-1R/IL-1RacP receptor (cells or tissue whose species is not stated) (Q9NPH3 whole entry, chain 2 of 2, further chain): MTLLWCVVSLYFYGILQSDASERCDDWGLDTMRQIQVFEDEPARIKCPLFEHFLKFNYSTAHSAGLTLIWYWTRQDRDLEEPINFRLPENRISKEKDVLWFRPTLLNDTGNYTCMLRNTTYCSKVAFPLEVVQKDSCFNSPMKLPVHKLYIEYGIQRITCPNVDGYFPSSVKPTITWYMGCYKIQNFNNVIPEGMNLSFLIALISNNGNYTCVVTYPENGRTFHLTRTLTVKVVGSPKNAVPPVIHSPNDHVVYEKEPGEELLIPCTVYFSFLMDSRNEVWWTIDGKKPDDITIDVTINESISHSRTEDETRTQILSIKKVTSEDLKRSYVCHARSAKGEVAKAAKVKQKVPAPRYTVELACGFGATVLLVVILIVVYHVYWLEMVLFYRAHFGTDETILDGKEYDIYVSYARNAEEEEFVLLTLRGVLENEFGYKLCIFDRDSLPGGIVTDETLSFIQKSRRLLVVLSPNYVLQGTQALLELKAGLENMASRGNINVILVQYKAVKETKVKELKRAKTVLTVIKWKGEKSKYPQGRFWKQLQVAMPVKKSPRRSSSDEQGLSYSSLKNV

Row | IC50 (FIG. 26; assay not given) [1] [µM] | efficacy (FIG. 26; assay not given) [1] [%] | activity (FIG. 26; assay not given) [1] [pM] | IC50, IL-1-induced PGE2 synthesis, endothelial cells [2] [pM] | fold potency against API-101.107, IL-1-induced PGE2 synthesis, endothelial cells [2] [fold] | Binder
1 | 2.4 | 100 | – | – | – | [dR][dY]X[dE][dL] (not fully specified (residue 3); printed as ry[R-I2aa]el) [TTI-101.124]
2 | – | – | 10 | 0.2 | 10 | [dR][dY][I2aa][dE][dL][dA]-NH2 [API-101.110]
3 | 9e-05 | 100 | – | – | – | [dOrn][dY]X[dE][dL][dA] (not fully specified (residue 3); printed as (D-orn)y[R-I2aa]ela) [TTI-101.125]
